# Results published in patent publication US20230357415A1.
# Target: IL-5Rα expressed on cells (TF-1/IL-5Rα cells; human eosinophils) (human) (UniProt Q01344)
# Assay: cell-based or functional assay
# Chain of IL-5Rα expressed on cells (TF-1/IL-5Rα cells; human eosinophils) (human) (Q01344 21-420): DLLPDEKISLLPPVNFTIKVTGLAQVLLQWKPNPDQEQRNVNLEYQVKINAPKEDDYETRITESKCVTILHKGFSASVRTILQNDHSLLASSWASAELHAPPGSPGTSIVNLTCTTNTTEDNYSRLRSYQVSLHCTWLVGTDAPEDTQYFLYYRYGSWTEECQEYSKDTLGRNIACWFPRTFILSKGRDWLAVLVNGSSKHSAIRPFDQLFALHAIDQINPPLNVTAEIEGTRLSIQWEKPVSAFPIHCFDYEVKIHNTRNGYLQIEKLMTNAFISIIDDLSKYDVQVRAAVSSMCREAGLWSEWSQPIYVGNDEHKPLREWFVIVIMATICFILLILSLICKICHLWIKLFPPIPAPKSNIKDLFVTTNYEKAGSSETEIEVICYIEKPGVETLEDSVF
substance,measurement,value
benralizumab analogue (antibody),"absolute IC50 (Abs IC50), inhibition of IL-5-dependent proliferation of TF-1/IL-5Rα cells",1.99 nM
